Data reported in US20120064078.

Molecular target: Thr90 phosphorylated Hsp90α (pT90-Hsp90α), recombinant human Hsp90α phosphorylated by recombinant protein kinase A

B1: recombinant human PP5 protein (protein phosphatase 5) (protein)
chain: MAMAEGERTECAEPPRDEPPADGALKRAEELKTQANDYFKAKDYENAIKFYSQAIELNPSNAIYYGNRSLAYLRTECYGYALGDATRAIELDKKYIKGYYRRAASNMALGKFRAALRDYETVVKVKPHDKDAKMKYQECNKIVKQKAFERAIAGDEHKRSVVDSLDIESMTIEDEYSGPKLEDGKVTISFMKELMQWYKDQKKLHRKCAYQILVQVKEVLSKLSTLVETTLKETEKITVCGDTHGQFYDLLNIFELNGLPSETNPYIFNGDFVDRGSFSVEVILTLFGFKLLYPDHFHLLRGNHETDNMNQIYGFEGEVKAKYTAQMYELFSEVFEWLPLAQCINGKVLIMHGGLFSEDGVTLDDIRKIERNRQPPDSGPMCDLLWSDPQPQNGRSISKRGVSCQFGPDVTKAFLEENNLDYIIRSHEVKAEGYEVAHGGRCVTVFSAPNYCDQMGNKASYIHLQGSDLRPQFHQFTAVPHPNVKPMAYANTLLQLGMM
In the case of B1, the “release of free phosphate (non-radioactive serine/threonine phosphatase assay)” value is reported as “the release of free phosphate was also significantly increased, P value<0.005”.
